Source: paper PMC10035768

Target: human Tau441 (2N4R), recombinant, phosphorylated in vitro by PKA (human) (UniProt P10636)
Experiment: cross-linking + other: mass photometry; BS3 amine-amine crosslinking of purified 4R tau (tau441, with or without PKA phosphorylation) with purified recombinant 14-3-3 β, 20-fold molar excess, 1× PBS pH 8.0, 30 min room temperature; mass photometry in DPBS at room temperature

human Tau441 (2N4R), recombinant, phosphorylated in vitro by PKA (human), sequence (P10636 other isoform, or with tags, fused parts or gaps): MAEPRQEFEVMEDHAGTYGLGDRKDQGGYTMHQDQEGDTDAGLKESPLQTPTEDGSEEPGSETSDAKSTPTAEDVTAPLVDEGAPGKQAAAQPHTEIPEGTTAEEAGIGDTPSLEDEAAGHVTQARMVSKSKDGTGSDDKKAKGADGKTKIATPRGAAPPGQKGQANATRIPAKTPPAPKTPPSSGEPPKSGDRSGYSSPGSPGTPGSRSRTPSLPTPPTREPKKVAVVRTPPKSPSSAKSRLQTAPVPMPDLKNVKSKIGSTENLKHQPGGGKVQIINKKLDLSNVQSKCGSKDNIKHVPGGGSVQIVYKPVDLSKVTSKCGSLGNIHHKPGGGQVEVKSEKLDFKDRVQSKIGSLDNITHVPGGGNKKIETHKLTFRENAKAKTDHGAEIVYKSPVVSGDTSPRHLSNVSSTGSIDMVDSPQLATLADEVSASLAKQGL

stoichiometry N (14-3-3-β per tau): 2
Substance: purified recombinant 14-3-3 β (from UniProt P31946 1-246) (natural protein)
